According to patent publication US20220242973A1 (Molecular Partners, published 2022):

What was measured:
Recombinant mouse FAP = target: T1, Recombinant mouse FAP (mouse, UniProt P97321 26-761); assay: SPR (ProteOn), mouse FAP immobilized on GLC chip
T1 construct: Bought soluble recombinant protein; also called mFAP
T1 sequence (looked up): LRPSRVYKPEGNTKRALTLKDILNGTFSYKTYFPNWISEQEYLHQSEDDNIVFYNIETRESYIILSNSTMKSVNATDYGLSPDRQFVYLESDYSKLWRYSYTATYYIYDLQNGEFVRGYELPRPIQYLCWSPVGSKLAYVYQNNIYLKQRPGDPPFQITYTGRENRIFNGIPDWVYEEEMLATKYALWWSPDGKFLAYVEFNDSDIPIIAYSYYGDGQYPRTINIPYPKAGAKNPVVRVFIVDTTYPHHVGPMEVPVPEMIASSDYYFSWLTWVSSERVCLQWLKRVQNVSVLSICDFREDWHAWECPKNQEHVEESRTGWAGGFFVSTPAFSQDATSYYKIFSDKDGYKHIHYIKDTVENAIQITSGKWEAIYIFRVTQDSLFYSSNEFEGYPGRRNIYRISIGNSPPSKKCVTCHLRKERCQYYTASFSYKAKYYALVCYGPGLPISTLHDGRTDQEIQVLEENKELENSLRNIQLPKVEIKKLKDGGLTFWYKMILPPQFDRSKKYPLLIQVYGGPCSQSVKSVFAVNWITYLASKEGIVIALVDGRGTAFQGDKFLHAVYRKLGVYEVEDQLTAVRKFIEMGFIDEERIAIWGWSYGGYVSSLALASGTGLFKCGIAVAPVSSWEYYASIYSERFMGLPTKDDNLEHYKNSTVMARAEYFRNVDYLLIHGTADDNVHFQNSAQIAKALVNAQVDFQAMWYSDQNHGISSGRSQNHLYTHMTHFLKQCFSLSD
Protocol: Briefly, mouse FAP was diluted in 10 mM Na-acetate pH5.3 buffer and covalently immobilized on a GLC chip (BioRad) to a level of around 2000 resonance units (RU). The interaction of DARPin® protein #41 and mFAP was then measured by injecting 200 μl running buffer (PBS, pH7.4 containing 0.005% Tween20®) containing serial dilutions of DARPin® protein #41 covering a concentration range between 50 nM and 3 nM (on-rate measurement), followed by a running buffer flow for 30 minutes at a constant flow rate of 100 μl/min (off-rate measurement). The regeneration was performed using 15 μl of 10 mM Glycine pH 2 followed by 15 μl of 124 mM H₃PO₄. The signals (i.e. resonance unit (RU) values) of the interspots and a reference injection (i.e. injection of running buffer only) were subtracted from the RU traces obtained after injection of DARPin® protein #41 (double-referencing). The binding of DARPin® protein #41 to hFAP was determined as described in Example 2.
Dissociation constants (KD) were calculated from the estimated on- and off-rates using standard procedures known to the person skilled in the art and are reported in Table 7. […] The dissociation constant of DARPin® protein #41 for binding to mouse FAP was determined to be 1.3 nM.

[1] = target: T2, Human FAP expressed on the cell surface (WI38, CHO-FAP1.9, U87MG cells) (human, UniProt Q12884 1-760); assay: FACS on WI38 cells (FAP on the cell surface), His-tag detected with Penta-His AF647 conjugate, median fluorescence intensity
T2 construct: whole, on cells; Endogenous on WI38 and U87MG cells; from a human FAP cDNA (OriGene) in CHO-FAP1.9 cells; also called hFAP; FAP+ cells
T2 sequence (looked up): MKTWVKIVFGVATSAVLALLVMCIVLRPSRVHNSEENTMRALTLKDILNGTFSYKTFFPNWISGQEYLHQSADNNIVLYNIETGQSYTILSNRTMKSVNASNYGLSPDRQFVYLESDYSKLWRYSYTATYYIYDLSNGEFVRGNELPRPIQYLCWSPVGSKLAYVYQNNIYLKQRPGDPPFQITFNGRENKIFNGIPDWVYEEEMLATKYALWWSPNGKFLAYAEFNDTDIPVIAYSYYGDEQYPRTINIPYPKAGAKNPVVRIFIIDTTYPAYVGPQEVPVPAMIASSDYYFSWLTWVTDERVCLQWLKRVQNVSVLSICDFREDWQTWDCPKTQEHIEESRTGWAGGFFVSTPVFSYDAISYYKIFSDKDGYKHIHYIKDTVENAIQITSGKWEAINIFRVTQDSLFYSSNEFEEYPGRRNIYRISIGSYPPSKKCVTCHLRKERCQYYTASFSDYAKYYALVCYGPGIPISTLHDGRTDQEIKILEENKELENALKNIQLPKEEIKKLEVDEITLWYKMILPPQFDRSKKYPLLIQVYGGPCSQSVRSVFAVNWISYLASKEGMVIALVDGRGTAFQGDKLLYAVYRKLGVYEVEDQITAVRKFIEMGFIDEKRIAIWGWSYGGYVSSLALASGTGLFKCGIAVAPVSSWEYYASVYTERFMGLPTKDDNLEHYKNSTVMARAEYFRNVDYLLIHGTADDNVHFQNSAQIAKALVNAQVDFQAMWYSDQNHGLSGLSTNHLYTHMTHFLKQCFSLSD
Protocol: In order to determine whether the fusion of a biologically active molecule to a FAP-specific ankyrin repeat domain affects the ability of the molecule to specifically recognize and bind to FAP expressed on the surface of cells, the binding of selected ankyrin repeat fusion proteins to FAP-expressing cells was tested. U87 MG cells and WI38 cells are known to express FAP on the cell surface and they were chosen as representative cells for these experiments. FAP expression on the U87 MG and WI38 cells was confirmed by FACS analysis (data not shown).
Using multi-well plates, 40,000 cells (either U87MG or WI38) were added per well in 50 μl of PBS. 50 μl of appropriate dilutions (2× dilution steps) of ankyrin repeat fusion protein (DARPin® protein #40 or DARPin® protein #41) was then added to the cells and incubated for 30 minutes on ice. After the ankyrin repeat fusion protein-binding reaction, cells were washed twice with PBS. Direct immunofluorescent detection of the His-tagged ankyrin repeat fusion proteins using Penta-His AF647 conjugate (QIAgen) and determination of live cells using LIVE/DEAD™ Fixable Green Dead Cell Stain Kit (ThermoFisher) were then performed together in one step. […] Acquisition and FACS analysis, including the determination of median fluorescence intensity (MFI), were done within 5 days after staining using an AttuneNxT instrument. […]

Kd (Recombinant mouse FAP): 1.3 nM | EC50 (read off the curve) [1]: ~2 nM
B1: DARPin® protein #41 (designed binder)
chain: MRGSHHHHHHGSDLGKKLLEAARAGQDDEVRELLKAGADVNAKDYFSHTPLHLAARNGHLKIVEVLLKAGADVNAKDFAGKTPLHLAANEGHLEIVEVLLKAGADVNAQDIFGKTPADIAADAGHEDIAEVLQKAAGSPTPTPTTPTPTPTTPTPTPTGSDLGEKLLVAALYGQDDEVRILLAAGADVNAKDQWGLTPLHKAALQGHLEIVEVLLKAGADVNAKDERGHTPLHWAARFGHLEIVEVLLKAGADVNAQDQKGYTPADLAALWGHEDIAEVLQKAA
notes: Fusion of a serum albumin-specific and a FAP-specific ankyrin repeat domain
